The record followed here is patent publication US20220133794A1 (Stanford University, published 2022).

Experiment [1] has as its target T1, human CD93 (human, UniProt Q9NPY3 22-652).
T1 construct: whole, on cells; Endogenous CD93 on AML cell lines
T1 sequence (looked up): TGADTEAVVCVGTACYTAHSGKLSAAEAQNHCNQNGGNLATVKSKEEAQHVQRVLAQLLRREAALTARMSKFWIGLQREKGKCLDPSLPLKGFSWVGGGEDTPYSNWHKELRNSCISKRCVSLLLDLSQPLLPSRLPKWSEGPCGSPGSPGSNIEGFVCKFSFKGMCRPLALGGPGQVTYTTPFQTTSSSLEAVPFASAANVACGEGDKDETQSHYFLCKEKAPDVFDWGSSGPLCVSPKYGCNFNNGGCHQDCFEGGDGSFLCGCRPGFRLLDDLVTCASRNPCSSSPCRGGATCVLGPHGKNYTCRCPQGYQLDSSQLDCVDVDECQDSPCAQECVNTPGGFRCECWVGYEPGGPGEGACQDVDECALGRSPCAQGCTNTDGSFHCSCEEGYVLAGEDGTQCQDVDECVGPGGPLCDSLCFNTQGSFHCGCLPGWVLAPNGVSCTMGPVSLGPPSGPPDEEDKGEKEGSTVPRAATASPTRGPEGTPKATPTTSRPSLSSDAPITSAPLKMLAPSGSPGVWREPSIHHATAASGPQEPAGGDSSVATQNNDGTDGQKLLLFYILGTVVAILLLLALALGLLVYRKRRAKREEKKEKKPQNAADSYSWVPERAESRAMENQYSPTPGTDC
Description: hybridoma supernatant screen by ELISA and flow cytometry.

Experiment [2] concerns the target T1, human CD93. Description: flow cytometry on AML cell lines, biotinylated antibody and streptavidin APC. As for the experimental part:
FIG. 8. CD93-specific CAR T cells produce cytokines when incubated with CD93 positive AML cell lines. A. AML cell lines were first treated with Fc block, then were stained with biotinylated HuF11 antibody followed by streptavidin APC, or with streptavidin APC only as a control. CD93 was highly expressed on many AML cell lines including THP-1, Kasumi, MOLM-13, NOMO-1, and OCI-AML3, and was not expressed on HEL-2. B. 1×10⁵ AML cells were incubated with 1×10⁵ mock, F11 28ζ LH, F11 28ζ H-L, F11 BBζ L-H, or F11 BBζ H-L CAR T cells for 24 h. At 24 h, supernatant was harvested and ELISA was performed for IFNγ and IL-2. Results are representative of at least three independent experiments.
On the technique in general: In flow cytometry, cells or beads pass a laser one at a time.

B1: mouse monoclonal anti-human CD93 antibody F11 (hybridoma clone F11) (antibody, V domains shown)
VH: EVQLQQSGPELVKPGASVKIPCKASGYTFTDYHMDWVKQSHGKSLEWIGDIDPYNGDTVFNQKFKGKATLTVDKSSSTAYMELRSLTSEDTAVYYCTRGGDYWGQGTTLTVSS
VL: DVVMTQTPLSLPVSLGDQASISCRSSQTLVHSNGNTYLHWYLQKPGQSPKLLIYKVSNRFSGVPDRFSGSGSGTDFTLKISRVEAEDLGVYFCSQSTHVPFTFGSGTKLEIK
notes: Mouse hybridoma antibody tested as supernatant; also called mouse F11; parental antibody
On to B1, for which the binding result in experiment [1] is on record as “binds”.

B2: humanized F11-G1 (Hu F11-G1) (antibody, V domains shown)
VH: QVQLVQSGAEVKKPGASVKVSCKASGYTFTDYHMDWVKQAPGQGLEWIGDIDPYNGDTVFNQKFKGKATMTRDTSISTAYMELSRLRSDDTAVYYCTRGGDYWGQGTLVTVSS
VL: DIVMTQTPLSLSVTPGQPASISCRSSQTLVHSNGNTYLHWYLQKPGQPPQLLIYKVSNRFSGVPDRFSGSGSGTDFTLKISRVEAEDVGVYFCSQSTHVPFTFGQGTKLEIK
notes: The light chain was detected with anti-human kappa; also called humanized mCD93 antibody (F11); humanized anti-CD93 antibody
As to B2, the binding result in experiment [2] was “binds”.
